Earlier results in patent publication US20240156960A1 (priority 2020, published 2024).
Substitutions are numbered along the chain they refer to.

B1: mAb-85 (antibody, listed as Homo sapiens, V domains shown)
VH: QVQLQESGPGLVKPSGTLSLTCAVSGGSITSRDWWSWVRQPPGKGLEWIGEVYHSGSTSYNPSLKSRVTISVDKSKNEFSLKLSSVTAADTAVYYCARAGNIVVMPAAQYYFDYWGQGTLVTVSS
VL: EIVLTQSPSSLSASVGDRVTITCRASQDISNYLAWYQQKPGKAPKLLIYAASTLQSGVPLRFSGSGSGTDFTLTISSLQPEDFATYYCLQLHNYSSFGGGTKVDIK
B2: C108 (antibody, listed as Homo sapiens, V domains shown)
VH: QVQLQESGPGLVKPSGTLSLTCAVSGGSISSTNWWSWVRQPPGKGLEWIGEIYHTGSTNYNPSLKSRVTISVDKSKNQFSLKLSSVTAADTAVYYCVRDGGRPGDAFDIWGQGTMVTVSS
VL: QSALTQPASVSGSPGQSITISCTGTSSDVGGYNYVSWYQQHPGKAPKLMIYDVSNRPSGVSNRFSGSKSGNTASLTISGLQAEDEADYYCNSYTSSSTRVFGTGTKVTVL
B3: C101 (antibody, listed as Homo sapiens, V domains shown)
VH: QVQLVESGGGLIQPGGSLRLSCAASGFIVSSNYMSWVRQAPGKGLEWVSVIYSGGSTFYTDSVKGRFTISRDNSKNTLYLQMNSLRAEDTAVYYCVRDYGDFYFDYWGQGTLVTVSS
VL: EIVLTQSPGTLSLSPGERATLSCRASQSVSSSYLAWYQQKPGQAPRLLIYGASSRATGIPDRFSGGGSETDFTLTISRLEPEDCAVYYCQQYGSSPRTFGQGTKVEIK
B4: C104 (antibody, listed as Homo sapiens, V domains shown)
VH: QVQLQQWGAGLLKPSETLSLSCAVYGGSLSGYYWSWIRQPPGKGLEWIGEINHFGSTGYNPSLKSRVTISVDTSKSQFSVKLSSVTAADTAVYYCARKPLLYSNLSPGAFDIWGQGTMVTVSS
VL: B3 VL with L11V, R24W, S31A, G66S, E69G, C84F, S94T, S95T, Q101G
B5: C124 (antibody, listed as Homo sapiens, V domains shown)
VH: EVQLVESGGGLVQPGGSLRLSCAASGFTFSGYSMNWVRQAPGKGPEWVSYISRSSSTIYYADSVKGRFTISRDNAKNSLYLQMNSLRDEDTAVYYCAREGARVGATYDTYYFDYWGQGTLVTVSS
VL: EIVLTQSPATLSLSPGERATLSCRASQSFSSYLAWYQQKPGQAPRLLIYDASNRATGIPARFSGSGSGTDFTLTISSLEPEDFAVYYCQQRNNWPPEWTFGQGTKVEIK
B6: C122 (antibody, listed as Homo sapiens, V domains shown)
VH: EVQLVESGGGLIQPGGSLRLSCAASGLTVSSNYMSWVRQAPGKGLEWVSVLYSGGSSFYADSVKGRFTISRDNSKNTLYLQMNSLRAEDTAVYYCARESGDTTMAFDYWGQGTLVTVSS
VL: DIQLTQSPSFLSASVGDRVTITCRASQGISSYLAWYQQKPGKAPKLLIYAASTLQSGVPSRFSGSGSGTEFTLTISSLQPEDFATYYCQQLNSDSYTFGQGTKLEIK
B7: C123 (antibody, listed as Homo sapiens, V domains shown)
VH: EVQLVESGGGLIQPGGSLRLSCAASGVTVSRNYMSWVRQAPGKGLEWVSVIYSGGSTYYADSVKGRFTISRDNSKNTLYLQMNSLRAEDTAVYYCARDLSAAFDIWGQGTMVTVSS
VL: B6 VL with D94Y, S95P, Y96P, T97A, K103R
B8: C120 (antibody, listed as Homo sapiens, V domains shown)
VH: EVQLVESGGGLIQPGGSLRLSCAASGFTVSSNYMTWVRQAPGKGLEWVSLIYPGGSTYYADSVKGRFTISRDNSKNTLYLQMNSLRAEDTAVYYCAREGMGMAAAGTWGQGTLVTVSS
VL: AIRMTQSPSSLSASVGDTVTITCQASQDISKYLNWYQQKPGKAPKLLIYDASNLETGVPSRFSGSGSGTDFTFTISSLQPEDIATYYCQQYDNLPQTFGGGTKVEIK
B9: C103 (antibody, listed as Homo sapiens, V domains shown)
VH: QVQLQQWGAGLLKPSETLSLTCAVSGGSLSGFYWTWIRQPPGKGLEWIGETNHFGSTGYKPSLKSRVTISVDMSRNQFSLKVTSVTAADTAVYYCARKPLLYSDFSPGAFDIWGQGTMVTVSS
VL: EIVLTQSPGTLSLSPGERATLSCRASQTVTANYLAWYQQKPGQAPRLLIYGASKRATGIPDRFSGSGSGTDFTLSISRLEPEDFAVYYCQQYTTTPRTFGGGTKVEIK
B10: C115 (antibody, listed as Homo sapiens, V domains shown)
VH: QVQLVESGGGLIKPGRSLRLSCTASGFTFGDYAMTWFRQAPGKGLEWVGFIRSKAYGGTTGYAASVKYRFTISRDDSKSIAYLQMDSLKTEDTAVYYCTRWDGWSQHDYWGQGTLVTVSS
VL: DIVMTQSPLSLSVTPGEPASISCRSSQSLLHSNGNNYFDWYLQKPGQSPQLLIYLGSNRASGVPDRFSGSGSGTDFTLKISRVEAEDVGVYYCMQVLQIPYTFGQGTKLEIK
B11: C117 (antibody, listed as Homo sapiens, V domains shown)
VH: QVQLVESGGGVVQPGRSLRLSCAASGFTFSTYAMHWVRQAPGEGLEWVAVISYDGSNTYYADSVKGRFTISRDNSKNTLYLQMNSLRAEDTAVYYCARDPIWFGELLSPPFVHFDYWGQGTLVTVSS
VL: QSVLTQPPSVSAAPGQKVTISCSGSSSNIGNNLVSWYQQLPGTAPKLLIYENNKRPSGIPDRFSGSKSGTSATLGITGLQTGDEADYYCGAWDSSLSAGGVYVFGTGTKVTVL
B12: C105 (antibody, listed as Homo sapiens, V domains shown)
VH: QVQLVESGGGLIQPGGSLRLSCAASGFTVSSNYMSWVRQAPGKGLEWVSVIYSGGSTYYADSVKGRFTISRDNSKNTLYLQMNSLRAEDTAVYYCARGEGWELPYDYWGQGTLVTVSS
VL: QSALTQPPSASGSPGQSVTISCTGTSSDVGGYKYVSWYQQHPGKAPKLMIYEVSKRPSGVPDRFSGSKSGNTASLTVSGLQAEDEADYYCSSYEGSNNFVVFGGGTKLTVL
B13: C017 (antibody, listed as Homo sapiens, V domains shown)
VH: EVQLVESGGGLVQPGRSLRLSCAASGFTFDDYAMHWVRQAPGKGLEWVSGISWNSGTIGYADSVKGRFTISRDNAKNSLYLQMNSLRAEDTAFYYCAKAGVRGIAAAGPDLNFDHWGQGTLVTVSS
VL: EIVLTQSPATLSLSPGERATLSCRASQSVSSYLAWYQQKPGQAPRLLIYDASNRATGIPARFSGSGSGTDFTLTISSLEPEDFAVYYCQQRITFGQGTRLEIK
B14: C110 (antibody, listed as Homo sapiens, V domains shown)
VH: QVQLQQSGAEVKKPGESLKISCKGSGYSFTSYWIGWVRQMPGKGLEWMGIIYPGDSDTRYSPSFQGQVTISADKSISTAYMQWSSLKASDTAMYYCARSFRDDPRIAVAGPADAFDIWGQGTMVTVSS
VL: DIQMTQSPSTLSASVGDRVTITCRASQSISYWLAWYQQKPGKAPKLLIYQASSLESGVPSRFSGSESGTEFTLTISSLQPDDFATYYCQQYNSYPYTFGQGTKLEIK
B15: 2M-8H10 (antibody, listed as Homo sapiens, V domains shown)
VH: QVQLVESGGGVVLPGRSLRLSCAASGFTFSTFAMHWVRQAPGKGLEWVAVISDEGSNKYYADSVKGRFTISRDNSRNTLYLQMNSLRAEDTAVYYCARAFYDSNWSVGSYFDSWGQGTPVTVSS
VL: DIQMTQSPDSLAVSLGERATIKCKSSQSVLHSSNNKNYLAWYQQKAGQPPSLLLYWASTRESGVPDRFSGSGSGTDFTLTISSLQAEDVAVYYCQQYYNNQWTFGQGTKVDIK
B16: 2M-7E9 (antibody, listed as Homo sapiens, V domains shown)
VH: EVQLVESGAEVKKPGSSVKVSCKASGGTFSSFAISWVRQAPGQGLEWMGGIIPIFDTTNYAQKFQGRVTITADESTRTAYMELSSLRSEDTAVYYCARIPGWDRGTDRNWNDDWGQGTTVTVSS
VL: B5 VL with E1D, L4M, F29V, S31N, Y32F, N92S, E97A, W98F, Q102P
B17: 2M-8E7 (antibody, listed as Homo sapiens, V domains shown)
VH: EVQLVESGAEVKKPGSSVKVSCKASGGTFSSYAISWVRQAPGQGLEWMGGIIPIFGTANYAQKFQGRVTVTADESTSTAYMELSSLRSEDTAVYYCARTYSFDSSGYYYDYWGQGTMVTVSS
VL: B5 VL with F29V, N92S, E97K, W98I, K105R, V106L
B18: 2M-4G4 (antibody, listed as Homo sapiens, V domains shown)
VH: EVQLVESGAEVKKPGASVKVSCKASGYTFTSYYIHWVRQAPGQGLEWMGVINPSGGSTTYAQKFQGRVTVTRDTSTSTVYMELSSLRSEDTAVYYCARERGDSSGYYEIITTANRRFGMDVWGQGTTVTVSS
VL: QSVLTQPASVSGSPGQSITISCTGTSSDVGMYNLVSWYQQHPGQAPKLMIYEGSKRPSGVSNRFSGSKSGNTASLTISGLQAEDEAYYYCCSYAVSSTWVFGGGTKLTVL
B19: 2M-9F10 (antibody, listed as Homo sapiens, V domains shown)
VH: EVQLLQSGGDLIQPGRSLRLSCAASGFSFEDYAMHWVRQAPGQGLEWVSGISYNGGSIDYVDSVKGRFTISRDNAKNALYLEMNSLRPEDTAFYYCAKDSVRREYTHARVPFDNWGLGTLVTVSS
VL: AIRMTQSPSSLSASVGDRVTISCRATQNINYFLNWYQQKPGRAPKLLIYAASGLQSGVPSRFSGSGTGRVFTLTINSLQPDDFATYYCQQSFVSPRTFGQGTKVDIK
B20: 2M-9H1 (antibody, listed as Homo sapiens, V domains shown)
VH: EVQLLESGGGVVQPGRSLRLSCVASGFNFNNYGMHWVRQAPGKGLEWLAALSYEGSKEHYADSLKGRFTVSRDYSRATLHLHMNSLEPEDTAVYFCAKSSKIFYLGESREVDYWGRGTLVTVSS
VL: DIVMTQSPSSLSAFVGDRVTITCRASRDIGGDLSWFQQKPGKAPERLIYAASSLESGVPSRFSGSGSATEFALTITSLQPEDFATYYCLQHKSYPLTFGGGTKVDIK

target: SARS-CoV1 S (Severe acute respiratory syndrome coronavirus, UniProt P59594); settings: not given

Molecule	Doesn't Bind to
B1	CoV1

target: SARS-CoV2 S; RBD (Severe acute respiratory syndrome coronavirus 2, UniProt P0DTC2); settings: epitope S

Molecule	Binds to
B2	SARS-CoV2
B3	SARS-CoV2
B4	SARS-CoV2
B5	SARS-CoV2
B6	SARS-CoV2
B7	SARS-CoV2
B8	SARS-CoV2
B9	SARS-CoV2
B10	SARS-CoV2
B11	SARS-CoV2
B12	SARS-CoV2
B13	SARS-CoV2
B14	SARS-CoV2

test system: SARS-CoV2; settings: not given

Molecule	Binds to
B15	SARS-CoV2
B16	SARS-CoV2
B17	SARS-CoV2
B18	SARS-CoV2
B19	SARS-CoV2
B20	SARS-CoV2

target: OC43 S (Human coronavirus OC43, UniProt P36334); settings: Protein + Epitope S, Unk
Sequence (P36334 14-1353): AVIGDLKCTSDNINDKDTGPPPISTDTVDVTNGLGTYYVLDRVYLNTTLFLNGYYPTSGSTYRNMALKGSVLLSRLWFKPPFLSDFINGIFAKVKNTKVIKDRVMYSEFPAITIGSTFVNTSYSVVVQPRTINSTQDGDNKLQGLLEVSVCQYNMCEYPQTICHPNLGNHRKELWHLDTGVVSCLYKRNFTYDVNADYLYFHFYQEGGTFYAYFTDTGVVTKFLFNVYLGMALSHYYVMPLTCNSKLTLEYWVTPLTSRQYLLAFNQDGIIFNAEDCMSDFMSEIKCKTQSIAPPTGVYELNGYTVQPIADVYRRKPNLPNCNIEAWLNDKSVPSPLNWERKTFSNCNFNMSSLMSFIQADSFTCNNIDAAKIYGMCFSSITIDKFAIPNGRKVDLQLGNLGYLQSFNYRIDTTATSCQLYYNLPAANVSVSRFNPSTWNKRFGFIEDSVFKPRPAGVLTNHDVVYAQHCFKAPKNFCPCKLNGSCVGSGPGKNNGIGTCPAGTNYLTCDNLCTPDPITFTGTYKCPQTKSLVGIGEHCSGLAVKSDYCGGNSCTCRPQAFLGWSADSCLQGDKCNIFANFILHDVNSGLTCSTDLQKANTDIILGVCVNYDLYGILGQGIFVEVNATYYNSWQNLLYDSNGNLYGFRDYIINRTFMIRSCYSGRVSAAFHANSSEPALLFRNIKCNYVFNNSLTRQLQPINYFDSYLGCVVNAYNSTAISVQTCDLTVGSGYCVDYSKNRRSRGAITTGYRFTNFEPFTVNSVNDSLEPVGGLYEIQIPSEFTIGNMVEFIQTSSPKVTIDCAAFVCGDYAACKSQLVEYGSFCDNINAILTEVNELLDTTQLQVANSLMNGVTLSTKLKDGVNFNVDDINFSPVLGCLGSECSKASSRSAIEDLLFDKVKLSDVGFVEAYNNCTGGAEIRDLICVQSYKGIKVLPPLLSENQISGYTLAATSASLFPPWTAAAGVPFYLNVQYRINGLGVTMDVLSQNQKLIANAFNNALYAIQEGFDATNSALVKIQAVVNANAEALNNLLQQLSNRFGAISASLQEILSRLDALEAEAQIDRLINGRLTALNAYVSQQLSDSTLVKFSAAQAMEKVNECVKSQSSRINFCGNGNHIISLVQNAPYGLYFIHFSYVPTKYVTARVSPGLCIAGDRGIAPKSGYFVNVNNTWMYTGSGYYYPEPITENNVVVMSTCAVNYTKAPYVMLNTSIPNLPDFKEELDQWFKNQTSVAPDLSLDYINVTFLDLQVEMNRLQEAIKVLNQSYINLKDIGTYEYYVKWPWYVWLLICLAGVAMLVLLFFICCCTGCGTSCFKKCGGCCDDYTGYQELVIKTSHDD

Molecule	Doesn't Bind to
B1	OC43,

target: NL63 S (Human coronavirus NL63, UniProt Q6Q1S2); settings: Protein + Epitope S, Unk
Sequence (Q6Q1S2 19-1356): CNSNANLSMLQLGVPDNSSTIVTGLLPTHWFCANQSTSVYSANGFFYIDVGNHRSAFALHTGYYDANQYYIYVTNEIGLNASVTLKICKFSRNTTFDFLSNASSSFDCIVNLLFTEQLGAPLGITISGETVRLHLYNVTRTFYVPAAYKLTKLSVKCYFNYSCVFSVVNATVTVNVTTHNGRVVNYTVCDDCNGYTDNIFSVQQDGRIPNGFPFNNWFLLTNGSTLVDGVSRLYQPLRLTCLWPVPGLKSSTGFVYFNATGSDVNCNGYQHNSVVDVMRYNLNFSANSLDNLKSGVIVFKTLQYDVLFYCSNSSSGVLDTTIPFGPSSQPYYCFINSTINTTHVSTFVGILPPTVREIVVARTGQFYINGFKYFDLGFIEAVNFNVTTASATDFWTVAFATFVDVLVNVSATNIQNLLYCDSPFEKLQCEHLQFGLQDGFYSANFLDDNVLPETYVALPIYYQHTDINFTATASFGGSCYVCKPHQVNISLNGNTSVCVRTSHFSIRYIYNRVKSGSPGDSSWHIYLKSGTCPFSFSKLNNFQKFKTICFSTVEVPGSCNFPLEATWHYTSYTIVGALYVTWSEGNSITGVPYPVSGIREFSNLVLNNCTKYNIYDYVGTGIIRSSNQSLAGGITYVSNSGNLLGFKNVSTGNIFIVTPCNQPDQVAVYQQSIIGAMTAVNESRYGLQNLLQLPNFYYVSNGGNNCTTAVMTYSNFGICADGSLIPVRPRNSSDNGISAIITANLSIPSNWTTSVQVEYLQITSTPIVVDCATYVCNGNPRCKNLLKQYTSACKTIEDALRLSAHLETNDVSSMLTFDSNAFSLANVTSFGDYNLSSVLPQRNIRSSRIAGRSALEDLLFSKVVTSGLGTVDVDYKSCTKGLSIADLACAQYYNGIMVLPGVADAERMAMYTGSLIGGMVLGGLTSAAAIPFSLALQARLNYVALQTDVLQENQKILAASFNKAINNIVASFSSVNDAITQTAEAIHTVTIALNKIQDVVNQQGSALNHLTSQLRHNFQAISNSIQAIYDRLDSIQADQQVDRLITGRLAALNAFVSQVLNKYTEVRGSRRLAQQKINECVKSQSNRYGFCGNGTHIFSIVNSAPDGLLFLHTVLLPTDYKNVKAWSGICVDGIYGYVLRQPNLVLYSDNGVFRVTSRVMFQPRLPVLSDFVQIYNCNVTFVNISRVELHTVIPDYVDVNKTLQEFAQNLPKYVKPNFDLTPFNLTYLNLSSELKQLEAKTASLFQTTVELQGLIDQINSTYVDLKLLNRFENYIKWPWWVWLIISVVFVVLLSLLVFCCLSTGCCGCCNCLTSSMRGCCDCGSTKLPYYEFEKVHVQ

Molecule	Doesn't Bind to
B1	NL63,

target: SARS-CoV2 S (Severe acute respiratory syndrome coronavirus 2, UniProt P0DTC2); settings: Protein + Epitope S, Unk

Molecule	Binds to
B1	SARS-CoV2
